Target: MYC-tagged TNPO1 (UniProt Q92973)
Experiment: co-immunoprecipitation with luciferase readout (anti-MYC IP)
Conditions: HEK293 cells expressing MYC-TNPO1 and PER1PY/Cys_mut-LUCIFERASE; control IgG IP (filled bar) est. 0.75 ± 0.19; n.s.; means ± SD of five; read off a plot

UniProt Q92973, sequence (Q92973 whole entry): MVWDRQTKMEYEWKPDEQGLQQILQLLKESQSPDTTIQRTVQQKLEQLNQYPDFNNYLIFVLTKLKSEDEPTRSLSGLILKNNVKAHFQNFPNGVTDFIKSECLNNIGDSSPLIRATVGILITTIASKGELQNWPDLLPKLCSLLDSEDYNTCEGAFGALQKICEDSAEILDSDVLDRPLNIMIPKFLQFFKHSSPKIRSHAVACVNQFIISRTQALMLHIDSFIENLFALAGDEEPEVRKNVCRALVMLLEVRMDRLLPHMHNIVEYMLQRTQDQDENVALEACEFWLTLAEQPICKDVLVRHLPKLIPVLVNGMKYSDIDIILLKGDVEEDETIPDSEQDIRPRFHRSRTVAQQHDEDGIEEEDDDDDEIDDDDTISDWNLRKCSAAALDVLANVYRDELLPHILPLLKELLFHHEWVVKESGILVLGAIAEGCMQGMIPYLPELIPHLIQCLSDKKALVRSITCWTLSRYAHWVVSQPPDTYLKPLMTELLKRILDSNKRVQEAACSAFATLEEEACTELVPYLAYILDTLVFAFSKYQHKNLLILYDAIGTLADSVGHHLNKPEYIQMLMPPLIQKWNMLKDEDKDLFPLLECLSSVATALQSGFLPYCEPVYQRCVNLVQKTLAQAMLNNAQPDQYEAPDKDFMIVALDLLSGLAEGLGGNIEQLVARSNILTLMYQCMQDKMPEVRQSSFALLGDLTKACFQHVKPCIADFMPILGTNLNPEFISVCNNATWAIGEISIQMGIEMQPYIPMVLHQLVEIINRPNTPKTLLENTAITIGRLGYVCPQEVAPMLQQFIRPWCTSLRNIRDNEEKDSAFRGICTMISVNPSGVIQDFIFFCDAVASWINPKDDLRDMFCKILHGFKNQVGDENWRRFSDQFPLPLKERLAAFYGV

response: 0.75
Substance: PER1 fused to full-length firefly luciferase (HEK293) (from UniProt O15534) P883A; Y884A; P935A; Y936A; seven C-terminal Cys to Ala (positions not printed)

— article PMC5805371
